In patent US20190153096A1 (COVAGEN, published 2019):

Molecular target: T1, Human C1q (EMD Millipore) (human, UniProt P02745 23-245; P02746 28-253; P02747 29-245)
T1 construct: Bought protein; the three subunits are added from general knowledge
Test: SPR (BIAcore), antibody immobilised on the chip, human C1q injected at 3.125-200 nM
Description: Antibodies were coated onto a CMS chip via amine coupling at coating density of 5000 RU Human C1q (EMD Millipore) was injected in running buffer (PBS pH7.4, 0.05% TWEEN-20) at 200 nM and three-fold serial dilutions thereof at a flow rate of 30 μl/min. Binding was recorded, and KD was determined by curve fitting using the BIAcore software using a steady-state affinity model.

T1 sequence (P02745 23-245 limits assumed, chain 1 of 3): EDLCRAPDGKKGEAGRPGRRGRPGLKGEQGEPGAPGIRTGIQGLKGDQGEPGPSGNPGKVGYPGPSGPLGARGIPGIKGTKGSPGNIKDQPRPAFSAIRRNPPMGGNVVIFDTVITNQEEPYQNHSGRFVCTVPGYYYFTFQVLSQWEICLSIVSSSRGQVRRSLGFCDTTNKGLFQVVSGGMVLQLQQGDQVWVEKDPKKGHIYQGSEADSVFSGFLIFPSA
T1 sequence (P02746 28-253 limits assumed, chain 2 of 3): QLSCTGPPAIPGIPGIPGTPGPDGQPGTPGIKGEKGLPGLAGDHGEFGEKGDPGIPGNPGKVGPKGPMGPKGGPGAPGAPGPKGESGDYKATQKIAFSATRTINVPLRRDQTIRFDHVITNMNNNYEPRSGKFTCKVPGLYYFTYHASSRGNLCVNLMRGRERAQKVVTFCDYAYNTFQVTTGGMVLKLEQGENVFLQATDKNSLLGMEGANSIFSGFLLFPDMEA
T1 sequence (P02747 29-245 limits assumed, chain 3 of 3): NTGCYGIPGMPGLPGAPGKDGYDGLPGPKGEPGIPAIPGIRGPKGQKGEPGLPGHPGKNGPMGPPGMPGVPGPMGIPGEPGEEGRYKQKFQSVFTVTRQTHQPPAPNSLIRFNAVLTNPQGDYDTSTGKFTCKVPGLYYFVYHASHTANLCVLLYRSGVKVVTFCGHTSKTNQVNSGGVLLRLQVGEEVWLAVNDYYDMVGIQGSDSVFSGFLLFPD

B1: mAb1 DANAPA IgG1 (antibody)
heavy: QVQLQQSGAELARPGASVKMSCKASGYTFTRSTMHWVKQRPGQGLEWIGYINPSSAYTNYNQKFKDKATLTADKSSSTAYMQLSSLTSEDSAVYYCASPQVHYDYNGFPYWGQGTLVTVSAASTKGPSVFPLAPSSKSTSGGTAALGCLVKDYFPEPVTVSWNSGALTSGVHTFPAVLQSSGLYSLSSVVTVPSSSLGTQTYICNVNHKPSNTKVDKKVEPKSCDKTHTCPPCPAPELLGGPSVFLFPPKPKDTLMISRTPEVTCVVVAVSHEDPEVKFNWYVDGVEVHNAKTKPREEQYASTYRVVSVLTVLHQDWLNGKEYKCKVSNKALAAPIEKTISKAKGQPREPQVYTLPPSREEMTKNQVSLTCLVKGFYPSDIAVEWESNGQPENNYKTTPPVLDSDGSFFLYSKLTVDKSRWQQGNVFSCSVMHEALHNHYTQKSLSLSPGK
light: QVVLTQSPAIMSAFPGEKVTMTCSASSSVSYMNWYQQKSGTSPKRWIYDSSKLASGVPARFSGSGSGTSYSLTISSMETEDAATYYCQQWSRNPPTFGGGTKLQITRTVAAPSVFIFPPSDEQLKSGTASVVCLLNNFYPREAKVQWKVDNALQSGNSQESVTEQDSKDSTYSLSSTLTLSKADYEKHKVYACEVTHQGLSSPVTKSFNRGEC
notes: mAb1 with D265A, N297A, P329A (EU); also called DANAPA Fc mutated mAb1
- binding result: no binding (tested: 200 nM)
